Experimental data as given in the nanobody polyreactivity screen of Harvey et al. (2022).

Assay: yeast display, Sf9 membrane polyspecificity reagent, FACS + sequencing; frameworks hold sequencing errors
Method in brief: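 A nanobody's polyreactivity label depends on the gate it was sorted from. Yeast display cells were stained with 10% biotinylated, detergent-solubilized Sf9 membrane reagent for 1 hour at 4 °C, enriched on streptavidin microbeads and sorted by FACS. The low and high (top ~1%) gates were set on anti-HA fluorescence for expression and streptavidin fluorescence for reagent binding.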

Sequence	polyreactivity (PSR sort gate)
QVQLEDSGGGLVQAGGSLRLSCAASGSTFNQYAMGWYRQATGKERELVAAITTSGARTYYADSVKGRFTISRDNAKNTVYLQMNSLKPEDTAVYYCNAGYFSYRYRYGYDYWGLGTQVTVSS	high polyreactivity
QVQLVESGGGLVQAGGSLRLSCAASGFIFRYYALGWYRQAPGKERELVAAIDYSGGSTNYADSVKGRFTISRDNAKNTVYLQMNSLKPEDNAVYYCNAEYTWHRGYDYWGQGTQVTVSS	low polyreactivity
QVQLVESGAGLVQAGGSLRLSCAASGFTFYPYAMGLYRQAPGKERELVAAINSGGSTYYADSVKGRFTISRDNAKNTVYLQMNSLKPEDTAVYYCAAYGKRGAVAFYYWGQGTQVTVSS	high polyreactivity
QVQLVESGGGLVQAGGSLRLSCAASGGTFSLYAMGWYRQAPGKEREFVAAISWRGTSTYYADSVKGRFTISRDNAKNTVYLQMNSLKPEDTAVYYCAARAWHEYGSWGQGTQVTVSS	high polyreactivity
QVQLVESGGGLVQAGGSLRLSCAASGIIFGSNAMGWYRQAPGKERELVAAISYSGASTYYADSVKGRFTISRDNAKNTVYLQMNSLKPEDTAVYYCATYSRWDYGYWGQGTQVTVSS	high polyreactivity
QVQLVESGGGLVQAGGSLRLSCAASGYIFGYNTMGWYRQAPGKERELVATINWRGSRTYYADSVKARFTISLDNAKNTVYLQMNSLKPEDTAVYYCNADHQFRSSVSGDHDYWGQGTQVTVSS	high polyreactivity
QDQLVESGGGLVQAGGSLRLSCAASGSIFPRYDMGWYRQAPGKERELVAAITGSGSSTYYADSVKGRFSISRDNAMNTVYLQMNSLKPEDTAGYYCAARKSRPPFPPPFDYYWRQGTQVTVSS	low polyreactivity
QVQLVESGGGLVQAGGSLRLSCAASGSTFNAYAMGWYRQAPGKERELVAAISYTGGSTYYADSVKGRFTISRDNAKNTVYLQMNSLKPEDTAVYYCARRQARKFYYWGQGTQVTVSS	high polyreactivity
QVQLVESGGGLVQAGGSLRLSCAASGSIFGTNAMGWYRQAPGKERELVATITSAGSTYYADSVKGRFTISRDNAKNTVYLQMNSLKPEDTAVYYCARQATGYVYREYDYWGQGTQVTVSS	low polyreactivity
LVQLVESGGGLVQAGGSLRLSCAASGNIFVSYAMGWYRQAPGKERELVAAISKSGGSTYYADSVKGRFTISRDNAKNTVYLQMNSLKPEDTAVYDCAARWYNRVKYQKFNYWGQGTQVTVSS	high polyreactivity
QVQLVESGGGLVQAGGSLRLICAASGRTFRLYAMGWYRQAPGKERELVAAITRGGRTNYADSVKGRFTISRDNAKNTVYLQMNSLKPEDTAVYYCAARYVERHTDYYYWGQGTQVTVSS	low polyreactivity
QVQLVESGGGLVQAGGSLRLSCAASGRIFKYNAMGWYRQAPGKERELVAAISWTGVSTHYADSVKGRFTISRDNAKNTVYLQMNSLKPEDTAVYYCAARVGRGVYYHWRDYWGQGTQVTVSS	low polyreactivity
QVQLVESGGGLVQAGGSLRLSCAASGRTFGRYAMGWYRQAPGKERELVARIRTSGGRTYYADSVKGRFTISRDIAKNTVYLLMNSLNPEDTAVYYCGTSSQPWYYWSTQGDDFWGQGTQVSVSS	low polyreactivity
QVQLVESGGGLVQAGGSLRLSCAASGRIYSRYAMGWYRQAPGKERELVAAISASGGSTYYADSVKGRFTISRDNAKNTVYLQMNSLKPEDTAVYYCNAYQTSTPLFPGYGYWGQGTQVTVSS	low polyreactivity
QVQLVESGGGLVQAGGSLRLSCAASGRIFSVNAMGWYRQAPGKERELVAAITTRGGTTYYADSVKGRFTISRDNAKNTVSLQMNSLKPEDTAVYYCAAESSWYVYWEWAHDYWGQGTQVTVSS	low polyreactivity
QVQLVESGGGLVQAGCSLRLSCAASGFTFRANGMGWYRQAPGKERELVATITSGGTTNYADSVKGRFTISRDNAKNTVYLQMNSLKPEDTAVYYCAKRFGPAYFRLYDYWGQGTQVTVSS	low polyreactivity
QVQLVESGGGLVQAGGSLRLSCAASGRIFYYNSKGWYRQAPGKERELVAAITSGDNTKYADSVKGRFTISRDKAKNTVYLQMNSLKPEDTAVYYCAARRYAPYQRRMDYWGQGTQVTVSS	high polyreactivity
